Series [1] concerns the molecule itself. Kind of series: non-reducing SDS-PAGE; purified MiD51^133-463 in the air; time course, dimer quantified every twenty-four hours; wild type and mutants compared.
Series [2] deals with the molecule itself. As to the kind of experiment: SEC; Superdex 200 PC 3.2/20; purified Drp1 and Drp1 mutants. In general terms: In gel filtration, larger molecules generally elute earlier.

The record followed here is paper PMC6355003, “New interfaces on MiD51 for Drp1 recruitment and regulation” (PLoS ONE, 2019).

For orientation: stoichiometry N means a count of units in the complex or per binding partner.

B1: MiD51^133-463, wild type (protein of the dimerization assays) (domain or fragment, human, UniProt Q9NQG6-1 133-463, looked up)
chain: MSLQEKLLTYYRNRAAIPAGEQARAKQAAVDICAELRSFLRAKLPDMPLRDMYLSGSLYDDLQVVTADHIQLIVPLVLEQNLWSCIPGEDTIMNVPGFFLVRRENPEYFPRGSSYWDRCVVGGYLSPKTVADTFEKVVAGSINWPAIGSLLDYVIRPAPPPEALTLEVQYERDKHLFIDFLPSVTLGDTVLVAKPHRLAQYDNLWRLSLRPAETARLRALDQADSGCRSLCLKILKAICKSTPALGHLTASQLTNVILHLAQEEADWSPDMLADRFLQALRGLISYLEAGVLPSALNPKVNLFAELTPEEIDELGYTLYCSLSEPEVLLQT
notes: the His tag is called N-terminal in the methods and C-terminal in the results; source: E. coli BL21 (DE3), purified
For the protein B1, the “stoichiometry N” value in series [1] was found to be 2.

B2: MiD51^133-463 C165S (domain or fragment, human, UniProt Q9NQG6-1 133-463, looked up)
chain: MSLQEKLLTYYRNRAAIPAGEQARAKQAAVDISAELRSFLRAKLPDMPLRDMYLSGSLYDDLQVVTADHIQLIVPLVLEQNLWSCIPGEDTIMNVPGFFLVRRENPEYFPRGSSYWDRCVVGGYLSPKTVADTFEKVVAGSINWPAIGSLLDYVIRPAPPPEALTLEVQYERDKHLFIDFLPSVTLGDTVLVAKPHRLAQYDNLWRLSLRPAETARLRALDQADSGCRSLCLKILKAICKSTPALGHLTASQLTNVILHLAQEEADWSPDMLADRFLQALRGLISYLEAGVLPSALNPKVNLFAELTPEEIDELGYTLYCSLSEPEVLLQT
notes: source: E. coli BL21 (DE3), purified
Consider B2, for which the binding result in series [1] is listed as “binds”.

B3: MiD51^133-463 nucleotide binding site mutant (NBM, H201D/R342E/K368E) (domain or fragment, human, UniProt Q9NQG6-1 133-463, looked up)
chain: MSLQEKLLTYYRNRAAIPAGEQARAKQAAVDICAELRSFLRAKLPDMPLRDMYLSGSLYDDLQVVTADDIQLIVPLVLEQNLWSCIPGEDTIMNVPGFFLVRRENPEYFPRGSSYWDRCVVGGYLSPKTVADTFEKVVAGSINWPAIGSLLDYVIRPAPPPEALTLEVQYERDKHLFIDFLPSVTLGDTVLVAKPHRLAQYDNLWRLSLEPAETARLRALDQADSGCRSLCLKILEAICKSTPALGHLTASQLTNVILHLAQEEADWSPDMLADRFLQALRGLISYLEAGVLPSALNPKVNLFAELTPEEIDELGYTLYCSLSEPEVLLQT
notes: as for B2
Turning to B3, the binding result in series [1] is given as “binds”.

B4: MiD51^133-463 supposed dimer surface mutant (SDM, R169A/R182A/D183A/Q212A/N213A) (domain or fragment, human, UniProt Q9NQG6-1 133-463, looked up)
chain: MSLQEKLLTYYRNRAAIPAGEQARAKQAAVDICAELASFLRAKLPDMPLAAMYLSGSLYDDLQVVTADHIQLIVPLVLEAALWSCIPGEDTIMNVPGFFLVRRENPEYFPRGSSYWDRCVVGGYLSPKTVADTFEKVVAGSINWPAIGSLLDYVIRPAPPPEALTLEVQYERDKHLFIDFLPSVTLGDTVLVAKPHRLAQYDNLWRLSLRPAETARLRALDQADSGCRSLCLKILKAICKSTPALGHLTASQLTNVILHLAQEEADWSPDMLADRFLQALRGLISYLEAGVLPSALNPKVNLFAELTPEEIDELGYTLYCSLSEPEVLLQT
notes: as for B2
Take B4: the binding result in series [1] is “binds”.

B5: Drp1 (dynamin-related protein Drp1), wild type (natural protein, UniProt O00429-4 1-699, looked up)
chain: MEALIPVINKLQDVFNTVGADIIQLPQIVVVGTQSSGKSSVLESLVGRDLLPRGTGIVTRRPLILQLVHVSQEDKRKTTGEENGVEAEEWGKFLHTKNKLYTDFDEIRQEIENETERISGNNKGVSPEPIHLKIFSPNVVNLTLVDLPGMTKVPVGDQPKDIELQIRELILRFISNPNSIILAVTAANTDMATSEALKISREVDPDGRRTLAVITKLDLMDAGTDAMDVLMGRVIPVKLGIIGVVNRSQLDINNKKSVTDSIRDEYAFLQKKYPSLANRNGTKYLARTLNRLLMHHIRDCLPELKTRINVLAAQYQSLLNSYGEPVDDKSATLLQLITKFATEYCNTIEGTAKYIETSELCGGARICYIFHETFGRTLESVDPLGGLNTIDILTAIRNATGPRPALFVPEVSFELLVKRQIKRLEEPSLRCVELVHEEMQRIIQHCSNYSTQELLRFPKLHDAIVEVVTCLLRKRLPVTNEMVHNLVAIELAYINTKHPDFADACGLMNNNIEEQRRNRLARELPSAVSRDKVASGGGGVGDGVQEPTTGNWRGMLKTSKAEELLAEEKSKPIPIMPASPQKGHAVNLLDVPVPVARKLSAREQRDCEVIERLIKSYFLIVRKNIQDSVPKAVMHFLVNHVKDTLQSELVGQLYKSSLLDDLLTESEDMAQRRKEAADMLKALQGASQIIAEIRETHLW
notes: Drp1, GenBank NM_005690; also called wild-type Drp1; source: E. coli Rosseta (DE3), purified (Ni-NTA, anion exchange, size-exclusion chromatography)
Regarding B5, the binding result in series [2] is “binds”.

B6: Drp1 S579D (natural protein, UniProt O00429-4 1-699, looked up)
chain: MEALIPVINKLQDVFNTVGADIIQLPQIVVVGTQSSGKSSVLESLVGRDLLPRGTGIVTRRPLILQLVHVSQEDKRKTTGEENGVEAEEWGKFLHTKNKLYTDFDEIRQEIENETERISGNNKGVSPEPIHLKIFSPNVVNLTLVDLPGMTKVPVGDQPKDIELQIRELILRFISNPNSIILAVTAANTDMATSEALKISREVDPDGRRTLAVITKLDLMDAGTDAMDVLMGRVIPVKLGIIGVVNRSQLDINNKKSVTDSIRDEYAFLQKKYPSLANRNGTKYLARTLNRLLMHHIRDCLPELKTRINVLAAQYQSLLNSYGEPVDDKSATLLQLITKFATEYCNTIEGTAKYIETSELCGGARICYIFHETFGRTLESVDPLGGLNTIDILTAIRNATGPRPALFVPEVSFELLVKRQIKRLEEPSLRCVELVHEEMQRIIQHCSNYSTQELLRFPKLHDAIVEVVTCLLRKRLPVTNEMVHNLVAIELAYINTKHPDFADACGLMNNNIEEQRRNRLARELPSAVSRDKVASGGGGVGDGVQEPTTGNWRGMLKTSKAEELLAEEKSKPIPIMPADPQKGHAVNLLDVPVPVARKLSAREQRDCEVIERLIKSYFLIVRKNIQDSVPKAVMHFLVNHVKDTLQSELVGQLYKSSLLDDLLTESEDMAQRRKEAADMLKALQGASQIIAEIRETHLW
notes: Drp1, GenBank NM_005690; S579 is S616 in Drp1 isoform 1 (printed); also called phosphorylation site mutant (related to S616 in Drp1 isoform 1); source: E. coli Rosseta (DE3), purified (Ni-NTA, anion exchange, size-exclusion chromatography)
B6: the binding result in series [2] is reported as “binds”.

B7: Drp1 K38A (natural protein, UniProt O00429-4 1-699, looked up)
chain: MEALIPVINKLQDVFNTVGADIIQLPQIVVVGTQSSGASSVLESLVGRDLLPRGTGIVTRRPLILQLVHVSQEDKRKTTGEENGVEAEEWGKFLHTKNKLYTDFDEIRQEIENETERISGNNKGVSPEPIHLKIFSPNVVNLTLVDLPGMTKVPVGDQPKDIELQIRELILRFISNPNSIILAVTAANTDMATSEALKISREVDPDGRRTLAVITKLDLMDAGTDAMDVLMGRVIPVKLGIIGVVNRSQLDINNKKSVTDSIRDEYAFLQKKYPSLANRNGTKYLARTLNRLLMHHIRDCLPELKTRINVLAAQYQSLLNSYGEPVDDKSATLLQLITKFATEYCNTIEGTAKYIETSELCGGARICYIFHETFGRTLESVDPLGGLNTIDILTAIRNATGPRPALFVPEVSFELLVKRQIKRLEEPSLRCVELVHEEMQRIIQHCSNYSTQELLRFPKLHDAIVEVVTCLLRKRLPVTNEMVHNLVAIELAYINTKHPDFADACGLMNNNIEEQRRNRLARELPSAVSRDKVASGGGGVGDGVQEPTTGNWRGMLKTSKAEELLAEEKSKPIPIMPASPQKGHAVNLLDVPVPVARKLSAREQRDCEVIERLIKSYFLIVRKNIQDSVPKAVMHFLVNHVKDTLQSELVGQLYKSSLLDDLLTESEDMAQRRKEAADMLKALQGASQIIAEIRETHLW
notes: Drp1, GenBank NM_005690; also called K38A mutant of Drp1; dominant-negative GTPase mutation K38A; source: E. coli Rosseta (DE3), purified (Ni-NTA, anion exchange, size-exclusion chromatography)
Turning to B7, in series [2], the binding result is “binds”.

B8: Drp1 S600D (natural protein, UniProt O00429-4 1-699, looked up)
chain: MEALIPVINKLQDVFNTVGADIIQLPQIVVVGTQSSGKSSVLESLVGRDLLPRGTGIVTRRPLILQLVHVSQEDKRKTTGEENGVEAEEWGKFLHTKNKLYTDFDEIRQEIENETERISGNNKGVSPEPIHLKIFSPNVVNLTLVDLPGMTKVPVGDQPKDIELQIRELILRFISNPNSIILAVTAANTDMATSEALKISREVDPDGRRTLAVITKLDLMDAGTDAMDVLMGRVIPVKLGIIGVVNRSQLDINNKKSVTDSIRDEYAFLQKKYPSLANRNGTKYLARTLNRLLMHHIRDCLPELKTRINVLAAQYQSLLNSYGEPVDDKSATLLQLITKFATEYCNTIEGTAKYIETSELCGGARICYIFHETFGRTLESVDPLGGLNTIDILTAIRNATGPRPALFVPEVSFELLVKRQIKRLEEPSLRCVELVHEEMQRIIQHCSNYSTQELLRFPKLHDAIVEVVTCLLRKRLPVTNEMVHNLVAIELAYINTKHPDFADACGLMNNNIEEQRRNRLARELPSAVSRDKVASGGGGVGDGVQEPTTGNWRGMLKTSKAEELLAEEKSKPIPIMPASPQKGHAVNLLDVPVPVARKLDAREQRDCEVIERLIKSYFLIVRKNIQDSVPKAVMHFLVNHVKDTLQSELVGQLYKSSLLDDLLTESEDMAQRRKEAADMLKALQGASQIIAEIRETHLW
notes: Drp1, GenBank NM_005690; S600 is S637 in Drp1 isoform 1 (printed); also called phosphorylation site mutant (related to S637 in Drp1 isoform 1); source: E. coli Rosseta (DE3), purified (Ni-NTA, anion exchange, size-exclusion chromatography)
In the case of B8, the binding result in series [2] is “binds”.
